Laboratory results from publication PMC9237115 (2022).
Where two headings read alike, the source gives them in different places.

Columns and labels:
[1] = biological target: T1, Full-length human Tau (MAPT) (human, UniProt P10636-8 1-441); assay: previously reported (ref 2)
[2] = biological target: Cdk2-phosphorylated Tau (PTau^Cdk2) (human, UniProt P10636-8 1-441, phosphorylated in vitro by Cdk2/CyA2, heterogeneously; LC-MS/MS confirmed phosphorylation of the AT8 (S202 and T205), AT180 (T231 and S235) and PHF1 (S396 and S404) epitopes; full list of sites in …); assay: Cdk2-phosphorylated Tau
[3] = biological target: T1, Full-length human Tau (MAPT)

T1 sequence (P10636 other isoform, or with tags, fused parts or gaps): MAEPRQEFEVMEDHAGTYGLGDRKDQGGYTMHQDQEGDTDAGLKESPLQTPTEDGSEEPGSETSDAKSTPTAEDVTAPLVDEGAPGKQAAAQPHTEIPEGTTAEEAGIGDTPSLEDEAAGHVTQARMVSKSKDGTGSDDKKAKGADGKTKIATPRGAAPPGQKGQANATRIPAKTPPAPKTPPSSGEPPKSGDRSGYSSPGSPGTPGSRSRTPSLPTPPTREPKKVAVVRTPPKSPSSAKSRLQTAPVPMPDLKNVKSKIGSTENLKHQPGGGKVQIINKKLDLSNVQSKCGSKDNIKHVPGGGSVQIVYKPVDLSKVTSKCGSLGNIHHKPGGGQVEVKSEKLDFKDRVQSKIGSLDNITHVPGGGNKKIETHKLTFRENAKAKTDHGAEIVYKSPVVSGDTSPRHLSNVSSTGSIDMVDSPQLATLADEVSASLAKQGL
Cdk2-phosphorylated Tau (PTau^Cdk2), sequence (P10636 other isoform, or with tags, fused parts or gaps): as above

B1: Hsp90 (HSP90AB1) (natural protein)
chain: not shown
B1 was tested, and the Kd [1] was 4.8 µM, the Kd [2] was 27.9 µM and the Kd [3] was 4.1 µM.
